Assay results reported in article PMC2963168, “Identification, Cloning, and Characterization of L-Phenylserine Dehydrogenase from Pseudomonas syringae NK-15” (Enzyme Research, 2010).
Blank lines part the entries; values can stand above or below the molecule they belong to.

How the values were obtained:
[1] = target: L-phenylserine dehydrogenase (ORF3) from Pseudomonas syringae NK-15 (Pseudomonas syringae NK-15); assay: SEC; HPLC gel filtration on a TSK-GEL G3000SW column (0.75 x 60 cm) at room temperature, 0.1 M potassium phosphate buffer (pH 7.0) with 0.2 M NaCl, 0.7 ml/min; native mass 98 kDa against a subunit of 27 kDa by SDS-PAGE
[2] = substrate: NC(=O)c1ccc[n+]([C@@H]2O[C@H](COP(=O)(O)OP(=O)(O)OC[C@H]3O[C@@H](n4cnc5c(N)ncnc54)[C@H](O)[C@@H]3O)[C@@H](O)[C@H]2O)c1; assay: purified protein; format: biochemical, Pseudomonas syringae; conditions: DL-threo-β-phenylserine as co-substrate, 0.2 M glycine-KCl-KOH pH 10.5, 30°C (standard assay), varied: cofactor
[3] = substrate: NC(C(=O)O)C(O)c1ccccc1; assay: purified protein; format: biochemical, Pseudomonas syringae; conditions: NAD+ as co-substrate, 0.2 M glycine-KCl-KOH pH 10.5, 30°C (standard assay), racemic DL-threo substrate

stoichiometry N [1]: 4
Molecule: L-phenylserine dehydrogenase (ORF3) from Pseudomonas syringae NK-15 (enzyme)

B1: L-phenylserine dehydrogenase (ORF3; L-PSDH) (Pseudomonas syringae) (protein)
chain: MSFPVCLVTGAATGIGAATALRFARDGWGVAINNFDDSTRADAERVAAQCREAGAQTLVIDADVGDDGACRRMVEQVAAQWGRIDALVNSAGTTRVIPHSDFEAIDPDEFERIYRVNLIGMFQMTRAATPLLRESFCPGHFASVLHVSSLASLYGTGLHPAYAASKGAVNSLTLSLARNLAPLVRVNAIAPGMVDDGLLRRVLGDEADGRVVESMRENAPLKRVSQPAEIAELAWFLAAHAPAMTGQVLAIENGLLLNT
notes: 98 kDa native, probably homotetramer; AB499092 is the 9,246-bp operon entry, which also holds D-phenylserine dehydrogenase (orf5)
Km [2]: 2.1 mM | Km [3]: 59 mM
